B1: W804^6.53bA (protein, UniProt Q5T601 20-910, looked up, variant W804A)
Adhesion G-protein coupled …: GFLGKNDGIKTKKELIVNKKKHLGPVEEYQLLLQVTYRDSKEKRDLRNFLKLLKPPLLWSHGLIRIIRAKATTDCNSLNGVLQCTCEDSYTWFPPSCLDPQNCYLHTAGALPSCECHLNNLSQSVNFCERTKIWGTFKINERFTNDLLNSSSAIYSKYANGIEIQLKKAYERIQGFESVQVTQFRNGSIVAGYEVVGSSSASELLSAIEHVAEKAKTALHKLFPLEDGSFRVFGKAQCNDIVFGFGSKDDEYTLPCSSGYRGNITAKCESSGWQVIRETCVLSLLEELNKNFSMIVGNATEAAVSSFVQNLSVIIRQNPSTTVGNLASVVSILSNISSLSLASHFRVSNSTMEDVISIADNILNSASVTNWTVLLREEKYASSRLLETLENISTLVPPTALPLNFSRKFIDWKGIPVNKSQLKRGYSYQIKMCPQNTSIPIRGRVLIGSDQFQRSLPETIISMASLTLGNILPVSKNGNAQVNGPVISTVIQNYSINEVFLFFSKIESNLSQPHCVFWDFSHLQWNDAGCHLVNETQDIVTCQCTHLTSFSILMSPFVPSTIFPVVKWITYVGLGISIGSLILCLIIEALFWKQIKKSQTSHTRRICMVNIALSLLIADVWFIVGATVDTTVNPSGVCTAAVFFTHFFYLSLFFWMLMLGILLAYRIILVFHHMAQHLMMAVGFCLGYGCPLIISVITIAVTQPSNTYKRKDVCWLNWSNGSKPLLAFVVPALAIVAVNFVVVLLVLTKLWRPTVGERLSRDDKATIIRVGKSLLILTPLLGLTAGFGIGTIVDSQNLAWHVIFALLNAFQGFFILCFGILLDSKLRQLLFNKLSALSSWKQTEKQNSSDLSAKPKFSKPFNPLQNKGHYAFSHTGDSSDNIMLTQFVSNE
B2: H820^7.39bA (protein, UniProt Q5T601 20-910, looked up, variant H820A)
Adhesion G-protein coupled …: GFLGKNDGIKTKKELIVNKKKHLGPVEEYQLLLQVTYRDSKEKRDLRNFLKLLKPPLLWSHGLIRIIRAKATTDCNSLNGVLQCTCEDSYTWFPPSCLDPQNCYLHTAGALPSCECHLNNLSQSVNFCERTKIWGTFKINERFTNDLLNSSSAIYSKYANGIEIQLKKAYERIQGFESVQVTQFRNGSIVAGYEVVGSSSASELLSAIEHVAEKAKTALHKLFPLEDGSFRVFGKAQCNDIVFGFGSKDDEYTLPCSSGYRGNITAKCESSGWQVIRETCVLSLLEELNKNFSMIVGNATEAAVSSFVQNLSVIIRQNPSTTVGNLASVVSILSNISSLSLASHFRVSNSTMEDVISIADNILNSASVTNWTVLLREEKYASSRLLETLENISTLVPPTALPLNFSRKFIDWKGIPVNKSQLKRGYSYQIKMCPQNTSIPIRGRVLIGSDQFQRSLPETIISMASLTLGNILPVSKNGNAQVNGPVISTVIQNYSINEVFLFFSKIESNLSQPHCVFWDFSHLQWNDAGCHLVNETQDIVTCQCTHLTSFSILMSPFVPSTIFPVVKWITYVGLGISIGSLILCLIIEALFWKQIKKSQTSHTRRICMVNIALSLLIADVWFIVGATVDTTVNPSGVCTAAVFFTHFFYLSLFFWMLMLGILLAYRIILVFHHMAQHLMMAVGFCLGYGCPLIISVITIAVTQPSNTYKRKDVCWLNWSNGSKPLLAFVVPALAIVAVNFVVVLLVLTKLWRPTVGERLSRDDKATIIRVGKSLLILTPLLGLTWGFGIGTIVDSQNLAWAVIFALLNAFQGFFILCFGILLDSKLRQLLFNKLSALSSWKQTEKQNSSDLSAKPKFSKPFNPLQNKGHYAFSHTGDSSDNIMLTQFVSNE
B3: N827^7.46bA (protein, UniProt Q5T601 20-910, looked up, variant N827A)
Adhesion G-protein coupled …: GFLGKNDGIKTKKELIVNKKKHLGPVEEYQLLLQVTYRDSKEKRDLRNFLKLLKPPLLWSHGLIRIIRAKATTDCNSLNGVLQCTCEDSYTWFPPSCLDPQNCYLHTAGALPSCECHLNNLSQSVNFCERTKIWGTFKINERFTNDLLNSSSAIYSKYANGIEIQLKKAYERIQGFESVQVTQFRNGSIVAGYEVVGSSSASELLSAIEHVAEKAKTALHKLFPLEDGSFRVFGKAQCNDIVFGFGSKDDEYTLPCSSGYRGNITAKCESSGWQVIRETCVLSLLEELNKNFSMIVGNATEAAVSSFVQNLSVIIRQNPSTTVGNLASVVSILSNISSLSLASHFRVSNSTMEDVISIADNILNSASVTNWTVLLREEKYASSRLLETLENISTLVPPTALPLNFSRKFIDWKGIPVNKSQLKRGYSYQIKMCPQNTSIPIRGRVLIGSDQFQRSLPETIISMASLTLGNILPVSKNGNAQVNGPVISTVIQNYSINEVFLFFSKIESNLSQPHCVFWDFSHLQWNDAGCHLVNETQDIVTCQCTHLTSFSILMSPFVPSTIFPVVKWITYVGLGISIGSLILCLIIEALFWKQIKKSQTSHTRRICMVNIALSLLIADVWFIVGATVDTTVNPSGVCTAAVFFTHFFYLSLFFWMLMLGILLAYRIILVFHHMAQHLMMAVGFCLGYGCPLIISVITIAVTQPSNTYKRKDVCWLNWSNGSKPLLAFVVPALAIVAVNFVVVLLVLTKLWRPTVGERLSRDDKATIIRVGKSLLILTPLLGLTWGFGIGTIVDSQNLAWHVIFALLAAFQGFFILCFGILLDSKLRQLLFNKLSALSSWKQTEKQNSSDLSAKPKFSKPFNPLQNKGHYAFSHTGDSSDNIMLTQFVSNE
B4: M675^3.47bA (protein, UniProt Q5T601 20-910, looked up, variant M675A)
Adhesion G-protein coupled …: GFLGKNDGIKTKKELIVNKKKHLGPVEEYQLLLQVTYRDSKEKRDLRNFLKLLKPPLLWSHGLIRIIRAKATTDCNSLNGVLQCTCEDSYTWFPPSCLDPQNCYLHTAGALPSCECHLNNLSQSVNFCERTKIWGTFKINERFTNDLLNSSSAIYSKYANGIEIQLKKAYERIQGFESVQVTQFRNGSIVAGYEVVGSSSASELLSAIEHVAEKAKTALHKLFPLEDGSFRVFGKAQCNDIVFGFGSKDDEYTLPCSSGYRGNITAKCESSGWQVIRETCVLSLLEELNKNFSMIVGNATEAAVSSFVQNLSVIIRQNPSTTVGNLASVVSILSNISSLSLASHFRVSNSTMEDVISIADNILNSASVTNWTVLLREEKYASSRLLETLENISTLVPPTALPLNFSRKFIDWKGIPVNKSQLKRGYSYQIKMCPQNTSIPIRGRVLIGSDQFQRSLPETIISMASLTLGNILPVSKNGNAQVNGPVISTVIQNYSINEVFLFFSKIESNLSQPHCVFWDFSHLQWNDAGCHLVNETQDIVTCQCTHLTSFSILMSPFVPSTIFPVVKWITYVGLGISIGSLILCLIIEALFWKQIKKSQTSHTRRICMVNIALSLLIADVWFIVGATVDTTVNPSGVCTAAVFFTHFFYLSLFFWALMLGILLAYRIILVFHHMAQHLMMAVGFCLGYGCPLIISVITIAVTQPSNTYKRKDVCWLNWSNGSKPLLAFVVPALAIVAVNFVVVLLVLTKLWRPTVGERLSRDDKATIIRVGKSLLILTPLLGLTWGFGIGTIVDSQNLAWHVIFALLNAFQGFFILCFGILLDSKLRQLLFNKLSALSSWKQTEKQNSSDLSAKPKFSKPFNPLQNKGHYAFSHTGDSSDNIMLTQFVSNE

Tested on: ADGRF1
Experiment: Cell-surface expression by flow cytometry, ADGRF1
Format: cell-based, human
Settings: ADGRF1 constructs (pF1 Gi part of table), anti-Flag antibody, three independent measurements in duplicate
Method: The wild-type ADGRD1 and ADGRF1 and mutants used in functional studies were constructed into a pTT5 vector with a Flag tag at the N terminus for receptor expression measurement. The basal activity of ADGRD1 and ADGRF1 in mediating Gs signalling was measured by a cAMP accumulation assay using a LANCE Ultra cAMP detection kit (PerkinElmer) following the manufacturer’s instruction. In brief, 2 ml HEK293F cells (Invitrogen; cells were routinely tested for mycoplasma contamination) at a density of 1.2 × 10^6 cells per ml were transiently transfected with 2,000 ng plasmid of the wild-type or mutant receptor and cultured at 37 °C for 48 h with 5% CO2 atmosphere in a shaker shaking at 220 rpm. After collection, the cell-surface expression of the receptors was measured by incubating 10 μl cells with 15 μl monoclonal anti-Flag M2-FITC antibody (Sigma; 1:120 diluted in TBS supplemented with 4% BSA and 20% viability staining solution 7-AAD (Invitrogen)) at 4 °C for 20 min. After incubation, 175 μl TBS buffer was added and the fluorescent signal was measured using a flow cytometry reader (Guava easyCyte HT, Millipore).

Q: For B1, which “Cell-surface expression (% of WT)” value is on record?
A: 93 ± 4 % of WT

Q: B2 was tested. Which “Cell-surface expression (% of WT)” value did it give?
A: 77 ± 1 % of WT

Q: B3 was tested. Which “Cell-surface expression (% of WT)” value did it give?
A: 97 ± 21 % of WT

Q: B4 was tested. Which “Cell-surface expression (% of WT)” value did it give?
A: 107 ± 2 % of WT

From paper PMC9046087, “Structural basis of tethered agonism of the adhesion GPCRs ADGRD1 and ADGRF1” (Nature, 2022)
